experiment: soluble fraction after stress (log2 fold change); higher = more stays soluble; pooled small domains, quantitative proteomics; settings: stress: 75 degC
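Also: 20 min heating vs room temperature control held 20 min.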

Sequence | soluble fraction (log2)
HMLEPGQKVKSVVVDISGDLIYIDLGGKTEGVVELKEFYDEAGEYHVKPGDEIEVFFVSVQNGLKRFTT | -0.0603
HMLEQISDPEVLSKLADEVLSQQEKMVMDYRKGKTAAFQGLMGQMMKKTKGKGNPAKIQEILAQKL | 0.401
HMLEQLTPRELKVLQALAQGRQNKEIAAQLVISERTVKFHVSAILSKLNVGNRTEAVTVAAQRGLISL | -1.6
HMLEQSYYEKTDEIIELHGAKASSLIPVMQDVQAEYRYLPGELLSYIADKLGIPLAKAYSVATFYENFS | -0.282
HMLERKFGTSLEIKSLSKFLIENNYKKNAKYLNKLIQVLGTRSENRIIKTFFKQFPEIENIFRNQL | -0.612
HMLETADDAKRFLGAIISEKKAENLLRVYPDIIERIVAGKPVDLSLVKGIKQKTFDKLRQKVISHYSMY | -0.0346
HMLETHRRRQIILSLLRESGMLDVDEVAARLVVSPNTIRNDFNALAAEGLLRRIRGGATLAEP | -1.45
HMLFKNASGTVVSRIQSQVDGQINIRTGSGNAPDYAFVAKPDGAVELYHNGTKQFETGSSGVLLP | -0.406
HMLFQQPATMIGKIGVAMSDLRPSGKIKIDDEWYDGQSEGDYILKGQEIIVVQVMNAYLIVRL | 0.0841
HMLFRGNGFNTLYDKQLRITQQGEFKDGRLWDGKYYRYSKAGELVRIEIYEQGRYAGNGVITDEDKA | -1.06
HMLFSDSDLKSLLDKDISYVIEMYKAASKEQKRIISDMVAQKVMEKKYIDANILIQLGELTGINYMDL | -1.33
HMLFSEKLKQAMQDLHLNQIQVVGLTGKSKGSISQYISGKQVPSEATQRDIAISLGLEENYFSKK | 0.701
HMLFYSDLVRLISFAEATLGKNEFETWYMSHHQGMKYTEIAIALGISVRTVEDRIARTKNHFRKI | -0.68
HMLGAGFDSDLTARENIFLNGALLGHSRAVMRGYYDDIVNFAELHDFMDVPVKNFSSGMTSRLAFSIATIG | 0.236
HMLGARIAALRRQAGMNQGELAKKLGISPSTVGMYEQGRREPSAEMLVRLAEAFSVSTDFLLT | -1.1
HMLGERIRRLRKEMGMSVTELARRVKTSPSYISEIEKGEKTPSLNLLVRIASELRTGIDYLTGL | -0.922
HMLGIGANVQKIAQERKISLKELSRRAGIPYTTIYNMVKRDSSRVSPENLQKLADALGVEIGKLYG | -0.24
HMLGSQQAYTDALRLTGLPVDIEVIESDRLPFLIPMRYSLDQHLIEVNVRYPDTRAIRVQQMVEELFHA | -0.631
HMLGVKKFGGEAVIAGNIILRQRGTKWITGSNVGIGKDHTLFAKIEGYVVFERMRGRDGQQQISIYP | 0.0286
HMLGYQALASAFRSKVEAGIWPIGEAIPSEARLSKEYGVAVGTIRQAIAELAEEGILIKRHGKSTMVSSG | -1.49
HMLHEFSGVVVSILADTGPSTLKQLHRSLISSDVKMDEKELMQILDEALSSGSVTSHRKGRYLYYSANK | -1.71
HMLHIKKGDTVIVNAGESKGQQGKVLEVLVGKERAIVEGVNMVSKHTKPNAKNPQGGIVKKEAPIHISNLQ | 0.154
HMLHPLLWAVDEPTPVTVRTRPEYVPDVVRWLMQPESQREHDGVVDLRYTVTHRAAFRSRIYVLGTRVTIP | 0.114
HMLIADADSLRKQIETVLANAPNEVAAYRGGKETLMGWFVGQIMRATGGKADPKLTREILAELLQ | -0.00264
HMLIADSDALRSQIESILNGNPNEVASFRAGKESLMGWFVGQVMRSTGGKADPKRTRELLQELLTK | -0.0249

Sequence | soluble fraction (log2)
HMLIDSEILKKTNKITIFLIYAFFSEYLINKEKKKILIGEYIKLSKDFLTIEEVKYFNHLLDDISK | -0.131
HMLIDSNNYFFYKVKPKEGFYSLQKKLGVNRSEIEKHNPSLINEVLKEGMILKIPKYLLNFDLN | -1.08
HMLILTWNYPYEYPMMMRSFLQEIGISRTFLAHIKSNGELLINGRHEIVLKTLQPGDVLTMVIPPSG | -2.13
HMLINLGPRIRKERRSKGISQSDFSKNLGISASYLNLLENGRRTLTVPLLIKIGNELNLSLKDL | -0.125
HMLISAESVKRRLEMIRHLILLGDYEDVTAQVIKLNPAANEYKLTPIIEELNGGKYQEALEKINSYLSKF | -0.839
HMLISKNLLGFTIKNTSGVTFGTLKDIMWLPSNDVYVIDNNGKEYLIPVISEIVKSINYDKGSITIFP | -0.4
HMLKASEVLPYVFTDKFFIDDLNLKQDQILGFLEYIDSKLPSQKLLQVSQQFQLIDFLINESKNYKNQ | -1.68
HMLKDININVTGLDQISNAKLINNLNLLKMNNLFFLDEKKIKKILNSNNLIEKFFIFKKYPSTLDIKVYKT | 0.177
HMLKHNLLSELSRIEGVGAVKRKALMDKFGTVENIKRASEEELSEVAGIGPTLARTIKEQMNKDE | -0.133
HMLKKRKPMSGVGVIVKGMLTGTVTGTDGSYALKARPNDELSFSFLGYKTQEVFVGSKSTIDITLVDEA | -0.111
HMLKLEEIQPNATVRGILPDALITVVNVKWFGSEALELTYKDTSGRVANQLLFRDDQPRLEIVE | -1.98
HMLKLEPYTINEINSLQELYDLGNVRALETLISIYKDKNQVYDTRFYVLDILSKYDNPLIQEALEESITN | -1.39
HMLKLPVEYLNLKYQLMHATSLDKPNNLMKLDEKLGKIIDVYYDDLPVDEQRVVDILQSKLYSY | -0.489
HMLKLYILTDGKNYVMDDPIHPGRVMYSTSPVNAKKFTFKQARALLNNKSKKLSWIRSFNMVDDSSGEKI | -1.44
HMLKREDEVIVVAGKDKGKRGTITQLVGDDRVIVAGVNMVKRHTKPNPNLGQPGGIVEREASLHISNV | 0.244
HMLKVHPRDQEENRLLLLKGERLYEESTGDTRVMIDMWLRKFEEALNSRSRENIEDARRELKEQLAELDN | -0.185
HMLLAPLRLGAAPDIKAQAPLATILARHNGEMEAKDLWQRFGGEIDAFYLQLKTEVAHGWIVEPEPA | -3.01
HMLLELINLQVKILENEELKIIGKVIDLENEKNNLLVIELLKDQKKVLVPFVKEIVPLIDIKNNFIMINPP | -0.903
HMLLFNVADIVKRAKRVLNFKTDAELAAYLGVSRPTLSNWIARNGIDFPLLLEKLKEIDYNWLLVGKGKPE | -2.74
HMLLGPDALTNRELDVLALLERRLSNKEIGALLYISPRTVKRHTINIYQKLHVNNRRAAVAQAKALGLMPD | -1.9
HMLLKIRPDLDGNEIMKLLNIAAGPNVGKAYEHLLELRLEHGPLGKERAEQELMNWWSARSQ | -0.898
HMLLNSLIDTLAAEKATVVPGTEVFKLYDTYGFPWELTEEIASERGFTIDHEGFEAAMKEQRERAREARV | -0.104
HMLLNTSQLKELYNRYDKKNSSLISIPFSAISDEPLKFYKWYAALFQIELNVKAFADVDSKQIIIYKGTK | -3.37
HMLLRSEDAIELGKSQLEDALAPYKIETLDTGTVQQLLDSLKLNSLESLYQEIGLGNRMSTIIAHRLLGE | -0.216
HMLLSFYGTYGNVKLTGKELEDLQKEFPFDYQARIDRLSAYMESSGRKYHSHFATIRSWAQDDAKKN | -2

Source: the domain aggregation screens of Martell et al. (2025)
